According to patent US20040253689A1:

Key:
Test in all cases: cell-based or functional assay
[1] = biological target: recombinant hIGFBP-3 standard (R&D Systems; synthesized in NSO mouse myeloma cells) (human) (UniProt P17936)
[2] = biological target: wild-type CHO-hIGFBP-3 (6xHis/Xpress/enterokinase-tagged mature human IGFBP-3 expressed in CHO-K1 cells from pRSV-Sec-BP3) (human) (UniProt P17936)
[3] = biological target: 6m-hIGFBP-3 (I56A, Y57A, R75A, L77A, L80A, L81A mutant CHO-hIGFBP-3) (human) (UniProt P17936)
Chain of 6m-hIGFBP-3 (I56A, Y57A, R75A, L77A, L80A, L81A mutant CHO-hIGFBP-3) (human) (P17936 other isoform, or with tags, fused parts or gaps I56A Y57A R75A L77A L80A L81A I56A Y57A R75A L77A L80A L81A): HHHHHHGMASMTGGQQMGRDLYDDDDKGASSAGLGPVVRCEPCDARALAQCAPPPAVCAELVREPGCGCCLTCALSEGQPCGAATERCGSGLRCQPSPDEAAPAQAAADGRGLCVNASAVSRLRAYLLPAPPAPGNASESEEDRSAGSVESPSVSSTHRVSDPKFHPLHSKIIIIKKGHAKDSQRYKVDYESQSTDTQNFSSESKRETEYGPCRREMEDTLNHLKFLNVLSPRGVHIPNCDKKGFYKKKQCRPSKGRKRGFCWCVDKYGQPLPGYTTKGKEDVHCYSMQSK

Chain of wild-type CHO-hIGFBP-3 (6xHis/Xpress/enterokinase-tagged mature human IGFBP-3 expressed in CHO-K1 cells from pRSV-Sec-BP3) (human) (P17936 other isoform, or with tags, fused parts or gaps limits assumed): as the sequence (P17936 other isoform, or with tags, fused parts or gaps I56A Y57A R75A L77A L80A L81A I56A Y57A R75A L77A L80A L81A) above, with A83I, A84Y, A102R, A104L, A107L, A108L counted along it
Chain of recombinant hIGFBP-3 standard (R&D Systems; synthesized in NSO mouse myeloma cells) (human) (P17936 28-291 limits assumed): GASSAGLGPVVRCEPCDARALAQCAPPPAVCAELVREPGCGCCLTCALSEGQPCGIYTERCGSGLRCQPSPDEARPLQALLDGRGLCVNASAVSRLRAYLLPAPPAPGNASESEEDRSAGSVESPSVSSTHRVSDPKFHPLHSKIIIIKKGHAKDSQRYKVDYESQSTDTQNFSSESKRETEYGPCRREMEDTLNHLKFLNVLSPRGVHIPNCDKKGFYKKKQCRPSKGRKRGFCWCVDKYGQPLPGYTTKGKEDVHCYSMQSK

percentage of floating PC-3 cells that were dead, with Leu^60-IGF-I [1]: 14% | percentage of floating PC-3 cells that were dead, without Leu^60-IGF-I [1]: 82% | percentage of floating PC-3 cells that were dead, with Leu^60-IGF-I [2]: 14% | percentage of floating PC-3 cells that were dead, without Leu^60-IGF-I [2]: 82% | percentage of floating PC-3 cells that were dead, with Leu^60-IGF-I [3]: 80% | percentage of floating PC-3 cells that were dead, without Leu^60-IGF-I [3]: 86%
Substance: Leu^60-IGF-I (IGF-I analogue in which leucine is substituted for tyrosine at position 60; expressed in Escherichia coli) (from UniProt P05019 49-118) (ligand)
